Data taken from patent US9644019B2, “Compounds for treating cardiac damage after ischaemia/reperfusion” (priority 2010, dated 2017).

Key:
EMMPRIN = biological target: T1, EMMPRIN (Mus musculus, UniProt P18572); assay: AP-9 peptide / EMMPRIN co-localization in MAEC cells; type: binding; details: DETA-NO 100 μM overnight, 0.08 mg/ml AP-9 peptide
T1 construct: Said cells were incubated overnight with the nitric oxide donor (DETA-NO) (100 μM) to induce EMMPRIN expression; endogenous in cells; host or cells: MAEC (mouse aortic endothelial cells), fixed with 4% PFA
T1 sequence (P18572 22-273 isoform P18572-2 limits assumed): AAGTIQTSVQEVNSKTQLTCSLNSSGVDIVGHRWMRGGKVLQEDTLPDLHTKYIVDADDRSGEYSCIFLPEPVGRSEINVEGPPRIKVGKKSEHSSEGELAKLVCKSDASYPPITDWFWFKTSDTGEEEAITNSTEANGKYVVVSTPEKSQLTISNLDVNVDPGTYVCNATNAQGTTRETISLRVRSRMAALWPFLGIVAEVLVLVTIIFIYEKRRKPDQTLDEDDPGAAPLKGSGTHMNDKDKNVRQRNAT
Method: The MAEC cells were incubated overnight with the nitric oxide donor (DETA-NO) (100 μM) to induce EMMPRIN expression (right panel). The MAEC cells without DETA-NO were used as a control (left panel). The MAEC cells were fixed with 4% PFA and incubated with 0.08 mg/ml of AP-9 peptide. EMMPRIN expression was detected using an anti-EMMPRIN antibody (1:1000), observing that both signals co-localize (right panel, top right square). The cores were stained with DAPI.
MAEC cells (mouse aortic endothelial cells) were used for the in vitro assays. Said cells were incubated overnight with the nitric oxide donor (DETA-NO) (100 μM) to induce EMMPRIN expression. The MAEC cells without DETA-NO were used as a control. The MAEC cells were fixed with 4% PFA and incubated with 0.08 mg/ml of AP-9 peptide. EMMPRIN expression was subsequently detected using an anti-EMMPRIN antibody (1:1000).

[1] = system: EMMPRIN-induced MMP-9 expression; assay: EMMPRIN-induced MMP-9 expression in MAEC cells (anti-MMP-9 immunodetection); type: cell-based, mouse; details: 100 μM DETA-NO, AP-9 peptide 0.08 mg/ml overnight, vs PBS
Method: MAEC cells were incubated with 100 μM of DETA-NO to induce EMMPRIN expression (B, D). MAEC cells without DETA-NO were used as a control (A, C). After 3 hours of treatment with DETA-NO, the MAEC cells were incubated overnight with AP-9 peptide (0.08 mg/ml) (C, D) or with PBS (A, B). The MAEC cells were fixed with 4% PFA, and MMP-9 expression was detected using an anti-MMP-9 antibody (1:1000). […] The cores were stained with DAPI.
Likewise, to ascertain if AP-9 peptide inhibited EMMPRIN-induced MMP-9 expression, MAEC cells were incubated with 100 μM of DETA-NO to induce EMMPRIN expression. After 3 hours of treatment with DETA-NO, the MAEC cells were incubated overnight with AP-9 peptide (0.08 mg/ml) or with PBS as a control without peptide. MAEC cells without DETA-NO were used as a control. Finally, the MAEC cells were fixed with 4% PFA and MMP-9 expression was detected using an anti-MMP-9 antibody (1:1000).

binding to EMMPRIN (co-localization of signals) (EMMPRIN): binds specifically
Sequence: YKLPGHHHHYRP (SEQ ID NO: 3) [AP-9 peptide, EMMPRIN antagonist peptide described in the literature]
EMMPRIN-induced MMP-9 expression [1]: inhibition
